Results reported in patent US20250258165A1 (OSAKA UNIVERSITY, published 2025).

Biological target: T1, p300 (mouse, UniProt B2RWS6 2-2412)
T1 construct: whole, on cells; Endogenous protein inside fixed, permeabilised LPS-stimulated mouse spleen B cells; It was detected through a DNA barcode-labeled antibody (clone RW128)
Assay: joining PCR of DNA barcode-labeled antibodies in hydrogel with NGS; LPS-stimulated mouse spleen B cells
Protocol: B cells collected from mouse spleen were suspended in serum-free medium. The cells were seeded on each well of fluororesin-coated glass slides (super hydrophobic printed glass slides, 10 wells, 6 mm diameter, Matsunami Glass Ind., Ltd., Cat. No. TF1006, see FIG. 6) with an adjusted density of 5000 cells/30 μL per circle. The cells were cultured in 5% CO₂ at 37° C. for 30 minutes, and the culture supernatant was removed. […] The cells were cultured in 5% CO₂ at 37° C. for 24 hours. IL-4 was used as stimulation for B-cell activation.
The joining PCR of the antibody barcodes that come in close proximity was performed using Mastercycler nexus flat (trade-name) (Eppendorf) PCR cycler. […] The PCR reaction was performed through a program consisting of six steps: step 1: 95° C., 2 minutes; step 2: (95° C., 30 seconds and 68° C., 1 minute)×10 cycles; step 3: (95° C., 30 seconds, 55° C., 30 seconds and 68° C., 1 minute)×2 cycles; step 4: (95° C., 30 seconds, 60° C., 30 seconds and 68° C., 1 minute)×16 cycles; step 5: 68° C., 1 minute; and step 6: 4° C., infinity. The samples after completion of the PCR reaction were stored at −20° C.

T1 sequence (B2RWS6 2-2412): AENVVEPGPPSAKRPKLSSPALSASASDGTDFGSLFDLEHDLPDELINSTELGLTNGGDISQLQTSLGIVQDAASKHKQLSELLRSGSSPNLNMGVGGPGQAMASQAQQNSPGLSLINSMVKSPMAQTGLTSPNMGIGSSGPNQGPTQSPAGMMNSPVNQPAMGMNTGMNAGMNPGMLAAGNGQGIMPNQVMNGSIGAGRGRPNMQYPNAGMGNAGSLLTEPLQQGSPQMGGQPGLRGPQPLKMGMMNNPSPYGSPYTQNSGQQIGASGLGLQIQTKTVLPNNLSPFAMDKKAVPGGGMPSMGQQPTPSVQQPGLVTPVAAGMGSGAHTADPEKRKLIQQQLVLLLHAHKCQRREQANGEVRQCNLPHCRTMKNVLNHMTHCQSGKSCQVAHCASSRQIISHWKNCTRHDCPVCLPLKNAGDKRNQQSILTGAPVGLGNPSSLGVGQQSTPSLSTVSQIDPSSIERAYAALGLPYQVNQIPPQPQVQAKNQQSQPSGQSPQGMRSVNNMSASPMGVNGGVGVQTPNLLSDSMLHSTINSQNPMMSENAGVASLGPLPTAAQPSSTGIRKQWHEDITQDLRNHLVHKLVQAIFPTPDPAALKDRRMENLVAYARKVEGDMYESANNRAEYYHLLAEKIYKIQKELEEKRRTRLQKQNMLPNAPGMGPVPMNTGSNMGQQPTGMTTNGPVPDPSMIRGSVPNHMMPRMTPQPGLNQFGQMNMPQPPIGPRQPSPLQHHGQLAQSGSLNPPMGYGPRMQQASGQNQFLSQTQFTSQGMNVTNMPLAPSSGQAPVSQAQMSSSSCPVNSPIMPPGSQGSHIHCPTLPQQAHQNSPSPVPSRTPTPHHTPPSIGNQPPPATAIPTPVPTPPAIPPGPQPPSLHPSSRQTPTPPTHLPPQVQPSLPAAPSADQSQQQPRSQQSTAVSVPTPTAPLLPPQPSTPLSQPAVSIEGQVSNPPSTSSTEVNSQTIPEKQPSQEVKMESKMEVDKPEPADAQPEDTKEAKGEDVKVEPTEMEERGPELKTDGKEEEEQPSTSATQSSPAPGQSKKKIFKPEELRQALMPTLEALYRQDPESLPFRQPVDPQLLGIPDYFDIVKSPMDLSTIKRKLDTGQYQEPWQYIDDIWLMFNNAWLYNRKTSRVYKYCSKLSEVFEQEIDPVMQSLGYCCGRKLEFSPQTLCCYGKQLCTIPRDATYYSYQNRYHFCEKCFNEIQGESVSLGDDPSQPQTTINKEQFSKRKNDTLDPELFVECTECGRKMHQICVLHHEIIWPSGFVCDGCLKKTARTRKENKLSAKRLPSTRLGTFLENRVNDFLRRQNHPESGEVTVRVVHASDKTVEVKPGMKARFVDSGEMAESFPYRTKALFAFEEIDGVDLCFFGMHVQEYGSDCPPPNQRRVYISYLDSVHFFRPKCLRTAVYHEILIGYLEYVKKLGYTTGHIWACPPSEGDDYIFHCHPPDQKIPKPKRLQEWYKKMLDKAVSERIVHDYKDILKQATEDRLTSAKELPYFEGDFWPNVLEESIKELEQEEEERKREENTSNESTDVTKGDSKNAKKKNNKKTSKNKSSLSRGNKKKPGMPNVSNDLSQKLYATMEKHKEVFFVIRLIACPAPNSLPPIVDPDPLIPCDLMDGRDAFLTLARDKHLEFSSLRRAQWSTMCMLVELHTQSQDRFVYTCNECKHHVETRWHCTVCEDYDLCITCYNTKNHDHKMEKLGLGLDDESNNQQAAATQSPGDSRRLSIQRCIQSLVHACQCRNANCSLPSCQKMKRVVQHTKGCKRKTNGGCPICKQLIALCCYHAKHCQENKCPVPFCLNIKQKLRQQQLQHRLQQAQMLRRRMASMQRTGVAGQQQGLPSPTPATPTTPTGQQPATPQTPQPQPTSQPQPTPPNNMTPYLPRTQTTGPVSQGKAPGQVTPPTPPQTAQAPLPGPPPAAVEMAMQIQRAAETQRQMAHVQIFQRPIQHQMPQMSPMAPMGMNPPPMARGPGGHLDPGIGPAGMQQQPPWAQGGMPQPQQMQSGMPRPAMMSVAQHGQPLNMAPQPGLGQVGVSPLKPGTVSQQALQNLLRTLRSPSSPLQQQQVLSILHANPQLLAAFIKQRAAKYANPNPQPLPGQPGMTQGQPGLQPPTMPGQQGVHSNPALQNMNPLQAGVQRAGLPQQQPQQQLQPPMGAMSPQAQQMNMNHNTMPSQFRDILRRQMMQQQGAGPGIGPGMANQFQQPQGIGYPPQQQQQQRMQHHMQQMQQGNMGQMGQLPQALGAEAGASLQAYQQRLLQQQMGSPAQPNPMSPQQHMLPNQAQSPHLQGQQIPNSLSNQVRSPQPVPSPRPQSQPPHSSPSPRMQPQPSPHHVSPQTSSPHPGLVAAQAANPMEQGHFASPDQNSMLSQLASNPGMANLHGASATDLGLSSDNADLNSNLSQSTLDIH

binding result: binds
B1: Lamin B1 (other, mouse, UniProt P14733 2-585, looked up)
chain: ATATPVQQQRAGSRASAPATPLSPTRLSRLQEKEELRELNDRLAVYIDKVRSLETENSALQLQVTEREEVRGRELTGLKALYETELADARRALDDTARERAKLQIELGKFKAEHDQLLLNYAKKESDLSGAQIKLREYEAALNSKDAALATALGDKKSLEGDLEDLKDQIAQLEASLSAAKKQLADETLLKVDLENRCQSLTEDLEFRKNMYEEEINETRRKHETRLVEVDSGRQIEYEYKLAQALHEMREQHDAQVRLYKEELEQTYHAKLENARLSSEMNTSTVNSAREELMESRMRIESLSSQLSNLQKESRACLERIQELEDMLAKERDNSRRMLSDREREMAEIRDQMQQQLSDYEQLLDVKLALDMEISAYRKLLEGEEERLKLSPSPSSRVTVSRASSSRSVRTTRGKRKRVDVEESEASSSVSISHSASATGNVCIEEIDVDGKFIRLKNTSEQDQPMGGWEMIRKIGDTSVSYKYTSRYVLKAGQTVTVWAANAGVTASPPTDLIWKNQNSWGTGEDVKVILKNSQGEEVAQRSTVFKTTIPEEEEEEEEEPIGVAVEEERFHQQGAPRASNKSC
notes: whole, on cells; Endogenous protein inside fixed, permeabilised LPS-stimulated mouse spleen B cells; It was detected through a DNA barcode-labeled antibody (clone L-5)
